In paper PMC7570257 (Biochemistry, 2015):

B1: EGFP-tagged tPRMT8 (domain or fragment, human, UniProt Q9NR22 61-394, looked up)
chain: MSKLLNPEEMTSRDYYFDSYAHFGIHEEMLKDEVRTLTYRNSMYHNKHVFKDKVVLDVGSGTGILSMFAAKAGAKKVFGIECSSISDYSEKIIKANHLDNIITIFKGKVEEVELPVEKVDIIISEWMGYCLFYESMLNTVIFARDKWLKPGGLMFPDRAALYVVAIEDRQYKDFKIHWWENVYGFDMTCIRDVAMKEPLVDIVDPKQVVTNACLIKEVDIYTVKTEELSFTSAFCLQIQRNDYVHALVTYFNIEFTKCHKKMGFSTAPDAPYTHWKQTVFYLEDYLTVRRGEEIYGTISMKPNAKNVRDLDFTVDLDFKGQLCETSVSNDYKMR
B2: chimera tPRMT8C (β15 of tPRMT8 replaced with that of Hmt1) (domain or fragment, human | yeast)
chain: MSKLLNPEEMTSRDYYFDSYAHFGIHEEMLKDEVRTLTYRNSMYHNKHVFKDKVVLDVGSGTGILSMFAAKAGAKKVFGIECSSISDYSEKIIKANHLDNIITIFKGKVEEVELPVEKVDIIISEWMGYCLFYESMLNTVIFARDKWLKPGGLMFPDRAALYVVAIEDRQYKDFKIHWWENVYGFDMTCIRDVAMKEPLVDIVDPKQVVTNACLIKEVDIYTVKTEELSFTSAFCLQIQRNDYVHALVTYFNIEFTKCHKKMGFSTAPDAPYTHWKQTVFYLEDYLTVRRGEEIYGTISMKPNAKNVRDLDFTVDLDFKIDGNSRSRKNEGSYLMH

How the values were obtained:
native gel or EMSA = biological target: the molecule itself; test: native gel or EMSA
AUC = biological target: the molecule itself; test: AUC

Row | Protein | stoichiometry N (native gel or EMSA) | stoichiometry N (AUC)
1 | B1 | 4 | –
2 | B2 | – | 4
